Test results: patent publication US20180155451A1 (published 2018)

T1: FcgRIIa R extracellular domain with C-terminal His tag (human, UniProt P12318 34-217)
T1 construct: extracellular domain; also called FcγRIIa R; FcγRIIa type R; not shown: His tag attached to the C terminus
T1 sequence (looked up): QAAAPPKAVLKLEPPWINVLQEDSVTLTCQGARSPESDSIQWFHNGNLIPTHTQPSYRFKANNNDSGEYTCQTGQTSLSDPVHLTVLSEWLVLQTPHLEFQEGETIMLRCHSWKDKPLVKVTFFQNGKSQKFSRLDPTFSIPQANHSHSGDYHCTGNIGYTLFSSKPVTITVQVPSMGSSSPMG

T2: FcgRIIa H extracellular domain with C-terminal His tag (human, UniProt P12318 34-217)
T2 construct: extracellular domain; also called FcγRIIa H; FcγRIIa type H; not shown: His tag attached to the C terminus
T2 sequence (looked up): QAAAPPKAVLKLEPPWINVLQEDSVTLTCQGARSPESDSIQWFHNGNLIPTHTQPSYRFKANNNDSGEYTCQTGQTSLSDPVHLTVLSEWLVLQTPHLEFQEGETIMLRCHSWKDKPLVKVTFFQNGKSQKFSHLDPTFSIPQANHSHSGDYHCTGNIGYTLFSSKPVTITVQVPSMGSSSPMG

T3: FcgRIIb extracellular domain with C-terminal His tag (human, UniProt P31994 43-217)
T3 construct: extracellular domain; also called FcγRIIb; not shown: His tag attached to the C terminus
T3 sequence (looked up): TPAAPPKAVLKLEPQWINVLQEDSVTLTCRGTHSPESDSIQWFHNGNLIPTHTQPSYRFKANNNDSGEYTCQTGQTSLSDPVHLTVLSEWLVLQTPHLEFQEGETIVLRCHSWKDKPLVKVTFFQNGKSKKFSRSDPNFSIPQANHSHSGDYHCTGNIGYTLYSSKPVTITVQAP

T4: FcγRIIa R (extracellular domain, C-terminal His tag) (human, UniProt P12318 34-217)
T4 construct: extracellular domain; Soluble receptor used as analyte in Biacore; also called FcgRIIa R; 2aR; not shown: His tag attached to the C terminus
T4 sequence (looked up): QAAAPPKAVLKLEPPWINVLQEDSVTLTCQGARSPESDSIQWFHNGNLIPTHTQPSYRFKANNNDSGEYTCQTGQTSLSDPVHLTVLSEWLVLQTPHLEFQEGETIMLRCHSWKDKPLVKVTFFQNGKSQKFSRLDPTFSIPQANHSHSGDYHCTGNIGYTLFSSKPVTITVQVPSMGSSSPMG

T5: FcγRIIb (extracellular domain, C-terminal His tag) (human, UniProt P31994 43-217)
T5 construct: extracellular domain; Soluble receptor used as analyte in Biacore; also called FcgRIIb; 2b; not shown: His tag attached to the C terminus
T5 sequence (looked up): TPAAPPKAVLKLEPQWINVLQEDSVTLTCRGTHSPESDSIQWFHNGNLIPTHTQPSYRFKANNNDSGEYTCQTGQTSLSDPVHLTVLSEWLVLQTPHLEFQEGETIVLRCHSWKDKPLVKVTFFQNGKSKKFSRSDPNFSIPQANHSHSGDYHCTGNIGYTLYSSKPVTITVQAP


Assays:
[1] = target: T6, FcgRIa extracellular domain with C-terminal His tag (human, UniProt P12314 16-292); experiment: SPR (Biacore), antibody captured on chip, FcγR extracellular domain as analyte, kinetic analysis
T6 construct: extracellular domain; Expressed in FreeStyle293 cells; used as analyte in Biacore; also called FcγRIa; FcγRI; not shown: His tag attached to the C terminus
Procedure: (§1) Analysis of interaction between obj ective antibody and the FcγR was carried out using Biacore T100 (GE Healthcare), Biacore T200, Biacore A100, and Biacore 4000. HBS-EP+ (GE Healthcare) was used as the running buffer, and the measurement temperature was set to 25° C. Chips produced by immobilizing the antigen peptide by the amine coupling method to a Series S sensor Chip CM5 (GE Healthcare), chips produced by allowing preliminarily biotinylated antigen peptides to interact with and immobilize onto a Series S Sensor Chip SA (certified) (GE Healthcare), chips produced by immobilizing Protein L (ACTIGEN, BioVision) to Series S Sencor Chip CM5 (GE Healthcare), or chips produced by immobilizing Protein A/G (Thermo Scientific) to Series S Sencor Chip CM5 (GE Healthcare) were used. Antibodies of interest were captured onto these chips, and allowed to interact to each FcγR diluted with running buffer. To regenerate and repeatedly use the chip, the antibodies captured onto the chip were washed off by reacting 10 mM glycine-HCl, pH 1.5.

[2] = target: T1, FcgRIIa R extracellular domain with …; experiment: as above
Procedure: as §1

[3] = target: T2, FcgRIIa H extracellular domain with …; experiment: as above
Procedure: as §1

[4] = target: T3, FcgRIIb extracellular domain with …; experiment: as above
Procedure: as §1

[5] = target: T7, FcgRIIIa F extracellular domain with C-terminal His tag (human, UniProt P08637 17-208); experiment: as above
T7 construct: extracellular domain; also called FcγRIIIa F; FcγRIIIa (F158); not shown: His tag attached to the C terminus
Procedure: as §1

[6] = target: T8, FcgRIIIa V extracellular domain with C-terminal His tag (human, UniProt P08637 17-208); experiment: as above
T8 construct: extracellular domain; also called FcγRIIIa V; FcγRIIIa (V158); not shown: His tag attached to the C terminus
Procedure: as §1

[7] = target: T4, FcγRIIa R (extracellular domain, …); experiment: SPR (Biacore); He/Con for FcγRIIa R divided by He/Con for FcγRIIb
Procedure: (§2) The heterodimerized antibodies He Abs in which one of the H chains was introduced with an alteration were assayed for their binding activities to each activating FcγR and inhibitory FcγR according to the method described in Example 4. […] The activating FcγRs in FIGS. 26, 27, 28, and 29 are FcγRIa, FcγRIIa (R), FcγRIIa (H), and FcγRIIIa, respectively.
(§3) Analysis of interaction between objective antibody and the FcγR was carried out using Biacore T100 (GE Healthcare). HBS-EP+ (GE Healthcare) was used as the running buffer, and the measurement temperature was set to 25° C. Chips produced by immobilizing the antigen peptide by the amine coupling method to a Series S Sencor Chip CM5 (GE Healthcare), or alternatively, chips produced by allowing preliminarily biotinylated antigen peptides to interact with and immobilize onto a Series S Sensor Chip SA (certified) (GE Healthcare) were used. Antibodies of interest were captured onto an antigen peptide-immobilized chip, and allowed to interact to each FcγR diluted with running buffer. To regenerate and repeatedly use the chip, the antibodies captured on the chip were washed off by reacting 10 mM glycine-HCl, pH 1.5.

[8] = target: T4, FcγRIIa R (extracellular domain, …); experiment: SPR (Biacore T100), antibody captured on antigen peptide chip, FcγR as analyte; relative binding amount
Procedure: as §2, §3

[9] = target: T5, FcγRIIb (extracellular domain, …); experiment: as above
Procedure: as §2, §3

T6 sequence (P12314 16-292): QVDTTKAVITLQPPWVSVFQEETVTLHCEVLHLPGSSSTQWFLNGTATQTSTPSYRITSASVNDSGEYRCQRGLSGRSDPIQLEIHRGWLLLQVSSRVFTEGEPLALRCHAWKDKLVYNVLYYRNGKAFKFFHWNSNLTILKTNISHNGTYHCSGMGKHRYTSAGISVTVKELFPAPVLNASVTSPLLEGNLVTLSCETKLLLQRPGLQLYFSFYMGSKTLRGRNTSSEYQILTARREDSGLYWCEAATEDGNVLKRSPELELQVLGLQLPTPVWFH
T8 sequence (P08637 17-208 F176V): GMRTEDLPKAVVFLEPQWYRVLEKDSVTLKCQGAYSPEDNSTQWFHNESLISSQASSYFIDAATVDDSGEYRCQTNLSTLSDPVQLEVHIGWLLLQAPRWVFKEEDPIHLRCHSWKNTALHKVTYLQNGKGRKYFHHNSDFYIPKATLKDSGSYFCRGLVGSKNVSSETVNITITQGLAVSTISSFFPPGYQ
T7 sequence (P08637 17-208): as the sequence (P08637 17-208 F176V) above, with V160F counted along it

| Binder | Kd [1] [nM] | Kd [2] [nM] | Kd [3] [nM] | Kd [4] [nM] | Kd [5] [nM] | Kd [6] [nM] | He_2aR/2b (IIaR/IIb) [7] [ratio] | He/Con_2aR (IIaR binding) [8] | He/Con_2b (IIb binding) [9] |
| --- | --- | --- | --- | --- | --- | --- | --- | --- | --- |
| H240-G1d/L73-k0 (antibody, human IgG1, kappa, Anti-epiregulin (EREG) IgG1; also called native IgG1 (anti-epiregulin)) heavy: not shown light: DIQMTQSPSSLSASVGDRVTITCRASQDIHKYIAWYQQKPGQAPRLLIQYTSTLQPGVPSRFSGSGSGTDYTFTISSLQPEDIATYYCLQYEQLRTFGGGTKVEIKRTVAAPSVFIFPPSDEQLKSGTASVVCLLNNFYPREAKVQWKVDNALQSGNSQESVTEQDSKDSTYSLSSTLTLSKADYEKHKVYACEVTHQGLSSPVTKSFNRGEC | 0.23 | 880 | 660 | 6000 | 1400 | 310 |  |  |  |
| H240-Kn032/H240-Hl032/L73-k0 (antibody, human IgG1, kappa, S239D/A330L/I332E in both H chains (called homodimerized)) heavy 1: QDQLVQSGAEVKKPGASVKVSCKASGFNIKDTYIQWVRQAPGQGLEWMGRIDPLRKQTKYREKFEGRVTITADTSTNTAYMELSSLRSEDTAVYYCVRSGREFDYWGQGTLVTVSSASTKGPSVFPLAPSSKSTSGGTAALGCLVKDYFPEPVTVSWNSGALTSGVHTFPAVLQSSGLYSLSSVVTVPSSSLGTQTYICNVNHKPSNTKVDKKVEPKSCDKTHTCPPCPAPELLGGPDVFLFPPKPKDTLMISRTPEVTCVVVDVSHEDPEVKFNWYVDGVEVHNAKTKPREEQYNSTYRVVSVLTVLHQDWLNGKEYKCKVSNKALPLPEEKTISKAKGQPREPQVCTLPPSRDELTKNQVSLWCLVKGFYPSDIAVEWESNGQPENNYKTTPPVLDSDGSFFLYSKLTVDKSRWQQGNVFSCSVMHEALHNHYTQKSLSLSP heavy 2: QDQLVQSGAEVKKPGASVKVSCKASGFNIKDTYIQWVRQAPGQGLEWMGRIDPLRKQTKYREKFEGRVTITADTSTNTAYMELSSLRSEDTAVYYCVRSGREFDYWGQGTLVTVSSASTKGPSVFPLAPSSKSTSGGTAALGCLVKDYFPEPVTVSWNSGALTSGVHTFPAVLQSSGLYSLSSVVTVPSSSLGTQTYICNVNHKPSNTKVDKKVEPKSCDKTHTCPPCPAPELLGGPDVFLFPPKPKDTLMISRTPEVTCVVVDVSHEDPEVKFNWYVDGVEVHNAKTKPREEQYNSTYRVVSVLTVLHQDWLNGKEYKCKVSNKALPLPEEKTISKAKGQPREPQVYTLPPSRCELTKNQVSLSCAVKGFYPSDIAVEWESNGQPENNYKTTPPVLDSDGSFFLVSKLTVDKSRWQQGNVFSCSVMHEALHNHYTQKSLSLSP light: DIQMTQSPSSLSASVGDRVTITCRASQDIHKYIAWYQQKPGQAPRLLIQYTSTLQPGVPSRFSGSGSGTDYTFTISSLQPEDIATYYCLQYEQLRTFGGGTKVEIKRTVAAPSVFIFPPSDEQLKSGTASVVCLLNNFYPREAKVQWKVDNALQSGNSQESVTEQDSKDSTYSLSSTLTLSKADYEKHKVYACEVTHQGLSSPVTKSFNRGEC | 0.073 | 340 | 690 | 620 | 9.1 | 3.1 |  |  |  |

Other lines, results leading:

| Kd [1] [nM] | Kd [2] [nM] | Kd [3] [nM] | Kd [4] [nM] | Kd [5] [nM] | Kd [6] [nM] | He_2aR/2b (IIaR/IIb) [7] [ratio] | He/Con_2aR (IIaR binding) [8] | He/Con_2b (IIb binding) [9] | Binder |
| --- | --- | --- | --- | --- | --- | --- | --- | --- | --- |
| 0.25 | 1000 | 930 | 4100 | 2600 | 390 |  |  |  | H240-Kn033/H240-Hl033/L73-k0 (antibody, human IgG1, kappa, Knobs-into-holes only (control)) heavy 1: not shown heavy 2: not shown light: DIQMTQSPSSLSASVGDRVTITCRASQDIHKYIAWYQQKPGQAPRLLIQYTSTLQPGVPSRFSGSGSGTDYTFTISSLQPEDIATYYCLQYEQLRTFGGGTKVEIKRTVAAPSVFIFPPSDEQLKSGTASVVCLLNNFYPREAKVQWKVDNALQSGNSQESVTEQDSKDSTYSLSSTLTLSKADYEKHKVYACEVTHQGLSSPVTKSFNRGEC |
|  |  |  |  |  |  | 0.78 | 117 % of control (GpH7-A5/GpH7-B3/GpL16-k0 = 100) | 149 % of control (GpH7-A5/GpH7-B3/GpL16-k0 = 100) | heterodimerized antibody GpH7-A5/GpH7-B3 variant L328_13S/GpL16-k0 (antibody, human IgG1, kappa, Anti-glypican-3 IgG1 with the alteration in only one H chain (the GpH7-B3 chain); also called He Ab) heavy 1: not shown heavy 2: not shown light: DIVMTQSPLSLPVTPGEPASISCQASESLVHSNRNTYLHWYLQKPGQSPQLLIYKVSNRFSGVPDRFSGSGSGTDFTLKISRVEAEDVGVYYCSQNTHVPPTFGQGTKVEIERTVAAPSVFIFPPSDEQLKSGTASVVCLLNNFYPREAKVQWKVDNALQSGNSQESVTEQDSKDSTYSLSSTLTLSKADYEKHKVYACEVTHQGLSSPVTKSFNRGEC |
